Test results from patent publication US11278600B2, “Human alpha-galactosidase variants” (Codexis, Inc., priority 2014, dated 2022).
Changes are numbered by the printed parent chain.

B1: 328 (protein)
chain: LDNGLARTPTMGWLHWERFMCNLDCQEEPDSCISEKLFMEMAERMVSEGWKDAGYEYLCIDDCWMAPQRDSEGRLQADPQRFPHGIRQLANYVHSKGLKLGIYADVGNKTCAGFPGSFGYYDIDAQTFADWGVDLLKFDGCYCDSLENLADGYKHMSLALNRTGRSIVYSCEWPLYMWPFQKPNYTEIRQYCNHWRNFADIDDSWASIKSILDWTSRNQERIVDVAGPGGWNDPDMLVIGNFGLSWNQQVTQMALWAIMAAPLFMSNDLRHISPQAKALLQDKDVIAINQDPLGKQGYQLRKGDNFEVWERPLSGLAWAVAIINRQEIGGPRSYTIPVASLGKGVACNPGCFITQLLPVKRKLGFYNWSSRLKSHINPTGTVLLQLENTMQMSLKDLL
modifications: Synthetic Polypeptide sequence of Variant No. 328 of mature Human GLA
B2: 330 (protein)
chain: B1 chain with I208V, R217F, R221K, K302Q, P337A, K343D, G350A, S369T
modifications: Synthetic Polypeptide sequence of Variant No. 330 of mature Human GLA
B3: 336 (protein)
chain: B1 chain with R217F, N247D, P337A
modifications: Synthetic Polypeptide sequence of Variant No. 336 of mature Human GLA
B4: 329 (protein)
chain: B1 chain with I208V, R217F, N247D, P337A, K343D, G350A, S369T
modifications: Synthetic Polypeptide sequence of Variant No. 329 of mature Human GLA
B5: 332 (protein)
chain: B1 chain with I208V, R217F, R221T, P337A, K343G, G350A, F365L, S369T, I376V
modifications: Synthetic Polypeptide sequence of Variant No. 332 of mature Human GLA
B6: 331 (protein)
chain: B1 chain with I208V, R217F, R221K, N247D, K302Q, P337A, K343D, G350A, S369T, I376V
modifications: Synthetic Polypeptide sequence of Variant No. 331 of mature Human GLA
B7: 334 (protein)
chain: B1 chain with R217F, N247D, K302Q, L316D, P337A, K362Q
modifications: Synthetic Polypeptide sequence of Variant No. 334 of mature Human GLA
B8: 333 (protein)
chain: B1 chain with R217F, K302Q, L316D
modifications: Synthetic Polypeptide sequence of Variant No. 333 of mature Human GLA
B9: 335 (protein)
chain: B1 chain with R217F, N247D, K302Q, L316D, P337A, K343G, K362Q
modifications: Synthetic Polypeptide sequence of Variant No. 335 of mature Human GLA

Experiment: HTP-analysis of supernatants pretreated with acid (MUGal hydrolysis)
Format: biochemical
Conditions: challenge at pH 4.0; activity of the variant/activity of Rd3BB (SEQ ID NO: 13); yeast culture supernatant
Method in brief: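 Fluorescence of MUGal hydrolysis (Ex. 355 nm, Em. 448 nm) is read after sodium carbonate quench. The enzyme source is INVSc1 yeast culture supernatant, first exposed to pH 3.3-4.3 McIlvaine buffer at 37° C. for 1-3 h, then reacted at pH 4.8 for 30-180 minutes.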

Q: With B1 as the molecule, how does the “Relative Activity of GLA Variants After Challenge at pH 4.0” value (from here on “Relative Activity … at pH 4.0”) read?
A: + (+ = 0.5 to 1.5 relative activity over Rd3BB (SEQ ID NO: 13))

Q: With B2 as the molecule, how does the “Relative Activity … at pH 4.0” value read?
A: ++ (++ = >1.5 to 2.5 relative activity over Rd3BB (SEQ ID NO: 13))

Q: Which “Relative Activity … at pH 4.0” value does the source give for B3 here?
A: + (+ = 0.5 to 1.5 relative activity over Rd3BB (SEQ ID NO: 13))

Q: For B4, which “Relative Activity … at pH 4.0” value is on record?
A: ++ (++ = >1.5 to 2.5 relative activity over Rd3BB (SEQ ID NO: 13))

Q: Which “Relative Activity … at pH 4.0” value does the source give for B5 here?
A: + (+ = 0.5 to 1.5 relative activity over Rd3BB (SEQ ID NO: 13))

Q: Which “Relative Activity … at pH 4.0” value does the source give for B6 here?
A: ++ (++ = >1.5 to 2.5 relative activity over Rd3BB (SEQ ID NO: 13))

Q: For B7, which “Relative Activity … at pH 4.0” value is on record?
A: ++ (++ = >1.5 to 2.5 relative activity over Rd3BB (SEQ ID NO: 13))

Q: For B8, which “Relative Activity … at pH 4.0” value is on record?
A: ++ (++ = >1.5 to 2.5 relative activity over Rd3BB (SEQ ID NO: 13))

Q: Which “Relative Activity … at pH 4.0” value does the source give for B9 here?
A: +++ (+++ = >2.5 relative activity over Rd3BB (SEQ ID NO: 13))

Experiment: HTP-analysis of yeast culture supernatants, no challenge (MUGal hydrolysis)
Format: biochemical
Conditions: activity of the variant/activity of Rd3BB (SEQ ID NO: 13), yeast culture supernatant
Method in brief: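 Activity read as 4-methylumbelliferyl α-D-galactopyranoside hydrolysis: fluorescence (355/448 nm) after sodium carbonate stop, following 30-180 min at 37° C with 2 mM MUGal stock at pH 4.6–4.8. Enzyme source is unchallenged culture supernatant of INVSc1 yeast expressing GLA variants, grown 66-84 h at 30° C.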

Q: Which “Relative Activity of GLA Variants After No Challenge (NC)” value does the source give for B1 here?
A: + (+ = 0.5 to 1.5 relative activity over Rd3BB (SEQ ID NO: 13))

Q: For B2, which “Relative Activity of GLA Variants After No Challenge (NC)” value is on record?
A: ++ (++ = >1.5 to 2.5 relative activity over Rd3BB (SEQ ID NO: 13))

Q: With B3 as the molecule, how does the “Relative Activity of GLA Variants After No Challenge (NC)” value read?
A: + (+ = 0.5 to 1.5 relative activity over Rd3BB (SEQ ID NO: 13))

Q: With B4 as the molecule, how does the “Relative Activity of GLA Variants After No Challenge (NC)” value read?
A: + (+ = 0.5 to 1.5 relative activity over Rd3BB (SEQ ID NO: 13))

Q: With B5 as the molecule, how does the “Relative Activity of GLA Variants After No Challenge (NC)” value read?
A: + (+ = 0.5 to 1.5 relative activity over Rd3BB (SEQ ID NO: 13))

Q: For B6, which “Relative Activity of GLA Variants After No Challenge (NC)” value is on record?
A: + (+ = 0.5 to 1.5 relative activity over Rd3BB (SEQ ID NO: 13))

Q: For B7, which “Relative Activity of GLA Variants After No Challenge (NC)” value is on record?
A: + (+ = 0.5 to 1.5 relative activity over Rd3BB (SEQ ID NO: 13))

Q: With B8 as the molecule, how does the “Relative Activity of GLA Variants After No Challenge (NC)” value read?
A: ++ (++ = >1.5 to 2.5 relative activity over Rd3BB (SEQ ID NO: 13))

Q: Which “Relative Activity of GLA Variants After No Challenge (NC)” value does the source give for B9 here?
A: ++ (++ = >1.5 to 2.5 relative activity over Rd3BB (SEQ ID NO: 13))

Experiment: HTP-analysis of supernatants pretreated with base (MUGal hydrolysis)
Format: biochemical
Conditions: challenge at pH 8.2; activity of the variant/activity of Rd3BB (SEQ ID NO: 13); yeast culture supernatant
Method in brief: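 GLA variants secreted from yeast INVSc1; culture supernatants pre-incubated with McIlvaine buffer pH 7.0–8.2 or 200 mM bicarbonate pH 9.1–9.7 at 37° C. for 1–18 h. Residual activity: MUGal (4 mM stock) hydrolysis at pH 4.3–4.8, 37° C., 30–180 min, carbonate quench; fluorescence Ex 355/Em 448 nm.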

Q: For B1, which “Relative Activity of GLA Variants After Challenge at pH 8.2” value (“Relative Activity … at pH 8.2” below) is on record?
A: + (+ = 0.5 to 1.5 relative activity over Rd3BB (SEQ ID NO: 13))

Q: For B2, which “Relative Activity … at pH 8.2” value is on record?
A: + (+ = 0.5 to 1.5 relative activity over Rd3BB (SEQ ID NO: 13))

Q: Which “Relative Activity … at pH 8.2” value does the source give for B3 here?
A: + (+ = 0.5 to 1.5 relative activity over Rd3BB (SEQ ID NO: 13))

Q: For B4, which “Relative Activity … at pH 8.2” value is on record?
A: ++ (++ = >1.5 to 2.5 relative activity over Rd3BB (SEQ ID NO: 13))

Q: With B5 as the molecule, how does the “Relative Activity … at pH 8.2” value read?
A: + (+ = 0.5 to 1.5 relative activity over Rd3BB (SEQ ID NO: 13))

Q: Which “Relative Activity … at pH 8.2” value does the source give for B6 here?
A: ++ (++ = >1.5 to 2.5 relative activity over Rd3BB (SEQ ID NO: 13))

Q: Which “Relative Activity … at pH 8.2” value does the source give for B7 here?
A: +++ (+++ = >2.5 relative activity over Rd3BB (SEQ ID NO: 13))

Q: Which “Relative Activity … at pH 8.2” value does the source give for B8 here?
A: ++ (++ = >1.5 to 2.5 relative activity over Rd3BB (SEQ ID NO: 13))

Q: With B9 as the molecule, how does the “Relative Activity … at pH 8.2” value read?
A: +++ (+++ = >2.5 relative activity over Rd3BB (SEQ ID NO: 13))

Experiment: HTP-analysis of supernatants pretreated with bovine serum (MUGal hydrolysis)
Format: biochemical
Conditions: activity of the variant/activity of Rd3BB (SEQ ID NO: 13), yeast culture supernatant
Method in brief: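 Yeast INVSc1 culture supernatants containing secreted GLA variants were mixed with bovine serum (20:80) and held 1 h at 37° C. Serum-treated samples then reacted with MUGal (4 mM stock) in citrate/McIlvaine buffer (pH 4.3/4.8) for 180 min at 37° C., were quenched with sodium carbonate, and read by fluorescence (Ex 355, Em 448 nm).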

Q: Which “Relative Activity of GLA Variants After Challenge with Serum” value (shortened to “Relative Activity … with Serum”) does the source give for B1 here?
A: + (+ = 0.5 to 1.5 relative activity over Rd3BB (SEQ ID NO: 13))

Q: With B2 as the molecule, how does the “Relative Activity … with Serum” value read?
A: + (+ = 0.5 to 1.5 relative activity over Rd3BB (SEQ ID NO: 13))

Q: For B3, which “Relative Activity … with Serum” value is on record?
A: − (− = <0.5 relative activity to Rd3BB (SEQ ID NO: 13))

Q: With B4 as the molecule, how does the “Relative Activity … with Serum” value read?
A: ++ (++ = >1.5 to 2.5 relative activity over Rd3BB (SEQ ID NO: 13))

Q: With B5 as the molecule, how does the “Relative Activity … with Serum” value read?
A: + (+ = 0.5 to 1.5 relative activity over Rd3BB (SEQ ID NO: 13))

Q: For B6, which “Relative Activity … with Serum” value is on record?
A: + (+ = 0.5 to 1.5 relative activity over Rd3BB (SEQ ID NO: 13))

Q: For B7, which “Relative Activity … with Serum” value is on record?
A: ++ (++ = >1.5 to 2.5 relative activity over Rd3BB (SEQ ID NO: 13))

Q: With B8 as the molecule, how does the “Relative Activity … with Serum” value read?
A: + (+ = 0.5 to 1.5 relative activity over Rd3BB (SEQ ID NO: 13))

Q: Which “Relative Activity … with Serum” value does the source give for B9 here?
A: +++ (+++ = >2.5 relative activity over Rd3BB (SEQ ID NO: 13))
